Test results reported in the supplement of paper PMC12764529.

Assay: folding stability dG unfold (combined trypsin and chymotrypsin); higher = more stable
Procedure: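 Folding stability of de novo designed mini-proteins (<80 aa, no Cys; designed by TrROS, TrMRF, ProteinMPNN and the joint model) was measured by cDNA display proteolysis with trypsin and chymotrypsin. Each protease was used at 11 concentrations in a threefold dilution series plus a no-protease condition. K50 was inferred by Bayesian fitting of sequencing counts, and dG unfold was derived against a sequence-predicted unfolded-state K50 (Tsuboyama et al. method). Sequences shown include variable-length N-terminal GS-type padding (SAGGSAGG...) inside a display construct carrying a PA tag. Rows were kept only if the AF2 dimer inter-PAE was >15, to exclude likely homo-oligomers.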

Folding stability dG unfold, < -1 kcal/mol:
SAGGSAGGSMEITVTLPPDQTAEDAIAALPSEYKNVTVLETSTTFPPTTDETPTVTLTIKVTKSAGGSAGGS [r12_822_JUSTAS], SAGGSAGGSMFMVKINNGKEIPIPPEDLPPGETVEELADNIPPGMRNIEIYNWDGEEQEIPIDSAGGSAGGS [r20_161_TrROS], SAGGSAGGSMTPEKIKKIRKRMEERGYQIPSIETNPGNGMPFININPPDPEMREKDPELRELISAGGSAGGS [r12_482_TrROS], SAGGSAGGSNWTIKVNIVEKPNGKKYIPITMRPPNGNTREGPMPADEIKDRFGMPAEDIAKAISAGGSAGGS [r20_235_TrROS], SAGGSAGGSPAFTVPREVKVGDKPVTVEVDGEGRVTIRTPEGGSESEPVGSPGPAPVAFRITLKSAGGSAGG [r6_241_JUSTAS], SAGGSAGGSPIMVRVERRDKDGKKKPVPTIPIPINNDDPEEALEWANEIAKKAGARDVRVEIWSAGGSAGGS [r12_569_TrROS], SAGGSAGGSPVDEIIEEIKKKGYKANVKSVSVSPNSKGELEIELEINIEKPEPKGTEENIKKKSAGGSAGGS [r12_120_JUSTAS], SAGGSAGGSSPSDTVTAELRYVLPDGTPVERTLSLTDLPSSVTPEDTLTLPGPGLRARILAVTGSAGGSAGG [r6_561_JUSTAS], SAGGSAGGSTIMIPPGMPPEEAKAWARDIAREQGFPPGRDLNVEVEPQPFDGGPWYTIDIEWDSAGGSAGGS [r12_252_TrROS], SAGGSAGGSTWEEVKKKAKEAGPELDFEPSPEGEKKFKIVAPKDKPEAVEALAKEYNVELEIESAGGSAGGS [r12_74_TrMRF], SAGGSAGGSVKDKNGTPYSVKEAKEKKLPNGTLVIELTLPESGKKITIPKKDIPKGISSEAKLKSAGGSAGG [r6_371_JUSTAS], SAGGSAGGSVVIPESVISNMKEEEIRELIKKNPKPVLLVTENPEVRKKAEEIFKKEGYPLVVGSAGGSAGGS [r12_97_TrMRF], SAGGSAGGSVVPPEEEETVEKKETLTDPVTGKEYLSRRRVTYRPSKPEKVAEEEEIIPPDEPLSAGGSAGGS [r12_868_JUSTAS], SAGGSAGGSVYYDESEDGVFVRVEGDGAPRVFPVADPEEARYRRIPTPDGRPVRVELRPSEEGSAGGSAGGS [r12_730_TrMRF], SAGGSAGGVEVEADPEYEVEVFEDPETGAVVAIVKGPDEVERALRFIPETGEPVELPLEEFEPLSAGGSAGG [r6_304_TrMRF], SAGGSAGSSSVSTVTPVGDYVVVTVNAPEGSVVTITDPATGTTETRAAPAGATFTVPPNASVSVTNSAGGSA [r15_418_JUSTAS], SAGGSALKPGQPVMIHVRLKIERPDPDGDEKKIPEIHIPVPVEEAKDIAEALPPNYKVKIDDISIMSAGGSA [r15_833_TrROS], SAGGSAMKFYIKYDPKKEKTILILPENNPDLEGNDGSKVIKVENEEELIKLIEEAKKKGIKKIEIKSAGGSA [r15_1004_TrMRF], SAGGSAMKYTLKDKDGKTITIEVEEHENPDGEPWYEVDIEHPNDGKEKKVYMPPNNPEEFAKKFLKSAGGSA [r15_92_TrROS], SAGGSAPIKITIHWDPENGMYRIKGKTPDGPVEYPFPRDELRNMPIENFADELNYEIKDVEIEPYPSAGGSA [r15_801_TrROS], SAGGSAPKRRIEIYPNPNGMYRIKVSNPDGKKREHTIDGPGMPLEQLANKLNIPPGFKIDEIEPYPSAGGSA [r15_167_TrROS], SAGGSAPPLTEVTLTEVSTDPETGTTTLTLEASGPVESVPLEFPDGRSVKAERLPDGTLVVTNPGASAGGSA [r15_736_JUSTAS], SAGGSASPDTRLVRIELKSNVPGTGIEVTETVPLVELEPDEPAEAVAEEVRAAHPVDEVTVTVDPASAGGSA [r15_540_JUSTAS], SAGGSASSMVSSLPLKVDPKEKARAEAEKLAEEKLEEEPDLEGTVEVELEMETPDKKIKVRLEIKKSAGGSA [r15_729_JUSTAS], SAGGSATIEEILKEIAEPHGAEPEVDPNSGVIEVDFPNGQEHTINVDDGKPIKIKYNPPGRMYIEISAGGSA [r15_256_TrROS], SAGGSAYITIDDIKKLGPNMPIMVEPPKGRLMIFSPNQMVKITIDPDDDTIKVKEVFDSPEAMEKLSAGGSA [r15_6_TrROS], SAGGSEPFTPEDLIRKALPVKPKAVVIPGPVSEEEIKALLDAGIPVVIIGKDGSRAVAVGDEVKPLSAGGSA [r2_33_TrMRF], SAGGSEVFVLPNGAVAVVEPDPDGVRVARVPGLPGVAVRYPPATRRWVLVTVDPRKGGPRTFTLTGSAGGSA [r2_477_TrMRF], SAGGSGGSTTPTFEEHVITGPLPVEIKVKKTTLNVTGSSAPSTTTTTTFYDPSGKKLSTKTTTTSSSAGGSA [r2_215_JUSTAS], SAGGSITISMPWNDPEKAAKALEEAFGVDVPPKVERDPGNGWYTITLPNLGRKIQIDGNKVKIEPPSAGGSA [r2_205_TrROS], SAGGSKVPLDDFDKVTIGVDPKTGKTTASIYYPSDGSTVTFPGKEIPEVLASNPNIKTVETEPLPGSAGGSA [r2_159_JUSTAS], SAGGSMKSEKVFTDPGPFDGASVTVTATEDGTITITVVDPDGVPKTFTKKVEKGNPEEVVKEAIKESAGGSA [r2_298_TrMRF], SAGGSMPIDDIKEINIQYNPNTGTVMVPFRLPNGHEIMAEQKYDPEAGWPVIPIRVNDGKPIEIPISAGGSA [r2_490_TrROS], SAGGSPITPEIAQELAEEFPNWDIHVEPRKPGEEIRFPNGMRIFDDPNGYRVMVHNPNGKPRQLPVSAGGSA [r2_166_TrROS], SAGGSPPVPDDETVEIEVPDYKITFHPATQEVTVQTNDPAKAKAVIEALPYPIPYKNIKIVPPEKLSAGGSA [r2_418_JUSTAS], SAGGSPVVPLPPDATATLTETVKVPRVLFDEEGNELEKLEVERTVTTTYTRLPGGEVATTTTTTTESAGGSA [r2_154_JUSTAS], SAGGSTYTVTRTEELPDGTVRAELTVTLDGAPVPATGTTETAPGGRRRVTVTFPSDPSLSLTTPEESAGGSA [r2_376_JUSTAS], SAGGTELAERIRAMGGFEVVEIKEGEGKPKVTVRTPDPALAEELRAFLAADPRVESVELEELSPELKSAGGS [r16_671_JUSTAS], SAGIRFRPGARIEWQNPDNGKKVEIRMREIRDRIQEINGNENPEQITAEQIQEWAREHGFRPIKIEPPSAGG [r19_67_TrROS], SAGKIKEIEMDPPHNQMTLELPEKGRKITINPNMGHLDIEPPDGKPREVPVPNPSDMKEAIKKVLKELKSAG [r5_467_TrROS], SAGKIRIVDSPDQLENAPPGDIVIHHRPSPETGRPRVRLAKYPDGKWEPLARMDSDGKIELPKELKEAISAG [r5_490_TrROS], SAGKPRPIINIEWQPNPDGQPNLTISVMRRDPKNGDMKPREYTIDPGADPEDLIKKALDEGADYVSIHPSAG [r5_37_TrROS], SAGMKPGEPIMTIKIKVKDPDNGKEVPINIPVRYQYDNGEPKRPISPDDALEEAKDLADRLKKDPNIKISAG [r5_426_TrROS], SAGMMVLVRNKNGETVPLEDMTEEQLKNMDIEEVEILPPPEIKVEEEVKVDENGNLTVKKKIEIKIEFSAGG [r19_232_TrROS_Hall]
